Measured values: the supplement of paper PMC12764529
± gives the half width of the 95% confidence interval.

Tests used:
[1] = folding stability dG unfold from trypsin proteolysis; higher = more stable
Outline: (§1)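 Digests were run with trypsin and chymotrypsin at 11 concentrations in threefold dilutions, plus a no-protease condition, on designed mini-proteins in a PA-tagged cDNA display construct. The mini-proteins were under 80 residues, had no cysteine, and were kept only when AlphaFold2 dimer inter-PAE was above 15. After sequencing, Bayesian fitting of the counts gave K50, from which unfolding free energy was derived against a sequence-predicted unfolded-state K50 and a shared folded-state K50, per protease or combined.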

[2] = folding stability dG unfold from chymotrypsin proteolysis; higher = more stable
Outline: as §1

[3] = folding stability dG unfold (combined trypsin and chymotrypsin); higher = more stable
Outline: as §1

| Sequence | folding stability dG unfold [1] | folding stability dG unfold [2] | folding stability dG unfold [3] |
| --- | --- | --- | --- |
| KTITIVVKVPSLEEVEALAAELAKELNLPPGAKVEVKVEYDEETGYVVVTVTVTNPNGEKIEIKIVVELPDS [r1_84_TrROS_Hall] | 1.86 ± 0.1 kcal/mol | 3.72 ± 0.38 kcal/mol | 3.08 ± 0.22 kcal/mol |
| KTKTIVINAKDLTEEQLRELLKKLGVSEEDVEVSEDGKTVVIKIDGVTIVIVASPPKPVVKPDDPEAKKAAS [r1_57_TrROS_Hall] | 1.27 ± 0.051 kcal/mol | 1.75 ± 0.085 kcal/mol | 1.61 ± 0.12 kcal/mol |
| KTRHIPIRDALDEAEELIDEGPRMVKITIYNNNGQKHEIETLKDILDKLKSNFPGMPPDNMKVQVEVIPPPS [r1_325_TrROS] | -0.297 ± 0.68 kcal/mol | -0.0938 ± 0.22 kcal/mol | -0.211 ± 0.3 kcal/mol |
| KVEIKVEIEVKYNKETGKKVVKIRITVKEGSKEEAEKLAAELAKELFGPNVKVTVEYDKETDEITVTLVFPS [r1_273_TrROS_Hall] | 3.57 ± 0.15 kcal/mol | 4.06 ± 0.18 kcal/mol | 3.96 ± 0.2 kcal/mol |
| LDPNKPENIALLEKVEEAAKAVIEELEKAGYKVEKLYVALGPNGIKIAPVTIPPEFIEELKKAGILVIPVLS [r1_134_TrMRF] | 1.49 ± 0.11 kcal/mol | 1.64 ± 0.14 kcal/mol | 1.56 ± 0.26 kcal/mol |
| MDDVVRVVLPVRVRIRDPVAPDRPEREVEILLERDVPLDEESLEELLEEAERAAEELARALGGEEAEVEPVS [r1_300_TrMRF] | 0.135 ± 0.09 kcal/mol | 1.54 ± 0.024 kcal/mol | 1.15 ± 0.089 kcal/mol |
| MEITITETENGYRVEVKIEITVIDPKTGEPVPLEIPVEAFVPASDPDPEKAAKEAAEKALEEVLKALPEGLS [r1_414_JUSTAS] | 2.33 ± 0.21 kcal/mol | 1.88 ± 0.091 kcal/mol | 1.99 ± 0.19 kcal/mol |
| MEVKIKVEIVKVEEVEVKKKKDGKEEKFIRIEIKIEVEAKPGLSEEEIKKLAEELAKKLKELGLEVEVKKES [r1_305_TrROS_Hall] | 0.993 ± 0.091 kcal/mol | 2.15 ± 0.13 kcal/mol | 1.96 ± 0.22 kcal/mol |
| MFKPGTKVTFGDKTVEVPEGDELYIFEGKVFGTSEVEAVLENMSDDAVGYKLVVEDETGKIVKVEEFVFKPS [r1_304_TrMRF] | -0.451 ± 0.25 kcal/mol | -0.172 ± 0.51 kcal/mol | -0.406 ± 0.43 kcal/mol |
| MIPLTLEYDPEKKVIRLKTPDGKPVIVEAGDKGYRVIIYDPKTGKPTVIPVTEKELLDLAKNPAFNLDLAAS [r1_18_TrMRF] | 1.94 ± 0.025 kcal/mol | 1.23 ± 0.076 kcal/mol | 1.65 ± 0.059 kcal/mol |
| MKAHVTVVDLEDRYRARIELELPDGRVLVFEFEFDSWEEAIEFIRGLIAALPEDEVEIDHIEFLPPDGDPSS [r1_169_TrMRF] | 3.92 ± 0.091 kcal/mol | 4.73 ± 0.051 kcal/mol | 4.46 ± 0.1 kcal/mol |
| MKIRVEITVRNPDGEELKIEIVLSLEELEELRKEGKPLTLEELKALIEERARKLAEELDLEVEIKIVEIEPS [r1_174_TrROS_Hall] | 4.11 ± 0.35 kcal/mol | 5.06 ± 0.89 kcal/mol | > 6 kcal/mol |
| MKKVKVTITITVPEEDKEKVKELIEKLKEAVPNVKVTSVEFDEKTGKITIVVEMTEEELEELKKALKEALES [r1_443_TrROS_Hall] | 2.78 ± 0.11 kcal/mol | 1.47 ± 0.036 kcal/mol | 2.06 ± 0.082 kcal/mol |
| MKPLTPDEVKELAKFIANMIRRRMRENGIKDVEIPVKVEPDPNGWYWINVSITFKYNGKPIGRFPIEIWVRS [r1_364_TrROS] | 3.17 ± 0.045 kcal/mol | 3.781 ± 0.019 kcal/mol | 3.57 ± 0.074 kcal/mol |
| MKPLTPEEVKKIAEGIAKEIEKAAKALGIDKVEVPVKIEKLPDGGYKIIIEVKLYKDDKKIGTFPIEIYIDS [r1_364_TrMRF] | 3.51 ± 0.34 kcal/mol | 3.1 ± 0.14 kcal/mol | 2.9 ± 0.39 kcal/mol |
| MKTIEIEIKLSPEIKEALKEGKPLSLEELVNKIKEEIAKKLGLKEVKVKKIEIKKDENGEIIIKVTIEVKPS [r1_290_TrROS_Hall] | 3.9 ± 0.38 kcal/mol | 2.77 ± 0.091 kcal/mol | 3.31 ± 0.27 kcal/mol |
| MKTITITVTDAPPGTVTIRVEIEREDGSTIEIEKEITVKPGDTITITLKEDEPYKIKKIEIYHNGKKIEITS [r1_70_TrROS_Hall] | 2.58 ± 0.15 kcal/mol | 3.81 ± 0.1 kcal/mol | 3.76 ± 0.33 kcal/mol |
| MKVVFTEEELPDAKVRKVFDPETGTITETVTYPSTSYTVTSTATITSFDPETGKVTITTTVSAPPEAGIPAS [r1_234_JUSTAS] | 1.87 ± 0.05 kcal/mol | 1.31 ± 0.057 kcal/mol | 1.63 ± 0.13 kcal/mol |

| Sequence | folding stability dG unfold [1] | folding stability dG unfold [2] | folding stability dG unfold [3] |
| --- | --- | --- | --- |
| MKYTLTLTDPTTPTTSTLTVPNDPEKALALLREAKAANPNLTATLTGVTSEEIVEAAKKAGLKDIKPKTAAS [r1_114_JUSTAS] | 0.15 ± 0.13 kcal/mol | 0.301 ± 0.27 kcal/mol | 0.316 ± 0.27 kcal/mol |
| MPAISIEEIIKLAKEAGKPAPPTVIVFNYKFGNTTRTLPVPLSEPVSLAEVEAAIKAADPNVTEITLTFVPS [r1_135_JUSTAS] | 0.551 ± 0.088 kcal/mol | 1.36 ± 0.12 kcal/mol | 1.07 ± 0.16 kcal/mol |
| MRFEFPLEDGGRVEVEMRPLPDGPVVLDVKITLPNGEEITIPFVFPREEFPDMDMEEIARRVVEEAIRLAKS [r1_92_TrMRF] | 3.463 ± 0.033 kcal/mol | 5.035 ± 0.038 kcal/mol | 4.77 ± 0.058 kcal/mol |
| MRITLELEDGTRVEIEFERKEDGTLVVRIKVTRKDGKTVEIEVVVRSKDGKITPEELERALREALEELLKKS [r1_124_TrROS_Hall] | 4.19 ± 0.24 kcal/mol | 4.06 ± 0.33 kcal/mol | 4.21 ± 0.38 kcal/mol |
| MRLRLTFRLPDGTEFRVERVEVLRVEPRGDRVVIPVRAYFTPEERRRLEELIPGLRDRPPLVVEVEIVLTGS [r1_35_TrMRF] | 3.05 ± 0.083 kcal/mol | 4.38 ± 0.055 kcal/mol | 3.96 ± 0.072 kcal/mol |
| MRRFEFPETGLVVPVVPSPDGRYRVRIYRPGGELVLEVELPDLPIPEGSDAEIRIPLKDLPPDLVTFVEPES [r1_263_TrMRF] | 0.819 ± 0.054 kcal/mol | 1.46 ± 0.09 kcal/mol | 1.21 ± 0.11 kcal/mol |
| MSEEERKKAAEERSKPPPVEIKVEVEVVKNEDGEEYLRVRVTVVDPETGEVIEEREFVVRREDLEELLKALS [r1_415_TrROS_Hall] | 3.7 ± 0.16 kcal/mol | 3.57 ± 0.15 kcal/mol | 3.45 ± 0.27 kcal/mol |
| MSEKTFVVEVKVESPEEAEELIEKLKEKLSGEKYEVKIEKVEVSPDGTVKVHITFKPGVPEEFIKKALEEES [r1_485_TrMRF] | 2.28 ± 0.13 kcal/mol | 2.97 ± 0.086 kcal/mol | 2.7 ± 0.11 kcal/mol |
| MTPDDMKDPNGMPPEDMWMVEIYVPRRDPEDGGPKWKPVGTIFIPPGMDPEELNEIIEELPGLDLIEIYPMS [r1_132_TrROS] | 1.03 ± 0.089 kcal/mol | 1.42 ± 0.043 kcal/mol | 1.33 ± 0.14 kcal/mol |
| MVITPEEVAEMLGVSPEELAALPLEELAQRILEVLPAGVATSVTVERDPARGTTTITVTLSDGKNIDVTLES [r1_340_JUSTAS] | 4.41 ± 0.33 kcal/mol | 4.61 ± 0.47 kcal/mol | > 6 kcal/mol |
| NIRITDIEMYPFPNNNQPQMEFTLEWPNGPRRTVEFELPGQEMEVYVDPKKGEIWFYFPNNGMFMKITIEPS [r1_125_TrROS] | 1.37 ± 0.068 kcal/mol | 2.97 ± 0.1 kcal/mol | 2.63 ± 0.35 kcal/mol |
| NKAQKLARSLARKFMRPHGYPMEIDPENNSIRFPNGEPIMEIPIDIVLLDDDGKIVEEINIPIRIRMRPPKS [r1_318_TrROS] | 0.695 ± 0.16 kcal/mol | 0.782 ± 0.27 kcal/mol | 0.762 ± 0.23 kcal/mol |
| PDNEPPQWYRVWIPIDPEDGKIEVKPGGSTMTIDLPDGRPIEFYVPQGMSPSDIKNWAKGIAKELAEELKNS [r1_25_TrROS] | 1.54 ± 0.076 kcal/mol | 1.58 ± 0.18 kcal/mol | 1.52 ± 0.2 kcal/mol |
| PFDIRINVEYERDPDNGKEYIEVSIMVWDGNPEQARDIAKEILEEHFGWKIKDVKVERFPDMYMITFKIRLS [r1_337_TrROS] | 3.46 ± 0.12 kcal/mol | 4.18 ± 0.082 kcal/mol | 3.78 ± 0.32 kcal/mol |
| PKWYEMNITINLPPDDPQKVKELKDALKKRNPDYKVKDIQFNPDDGQITINVWMPPQDQNRFQKAIKELLGS [r1_443_TrROS] | 1.86 ± 0.062 kcal/mol | 2.31 ± 0.025 kcal/mol | 2.12 ± 0.084 kcal/mol |
| PMIAPARLPDGSQTVSIFNANGELLVEAVVENDPELIEEAIEKLFEALPNIKPEELHVSVSDPETGESREIS [r1_55_TrMRF] | 1.05 ± 0.049 kcal/mol | 0.345 ± 0.17 kcal/mol | 0.671 ± 0.19 kcal/mol |
| QRVLPFKNPDGDYWVMIMNPNGDPLVEHRIPNDPEQMEKAIHKLMEQLPNFDPEDLRIAVMNPKNGESQEIS [r1_55_TrROS] | 0.222 ± 0.16 kcal/mol | 0.868 ± 0.12 kcal/mol | 0.61 ± 0.13 kcal/mol |
| SAAEPPPVYLVRITVKVPPGVKPLPPGAVVTYDPATGTLTVYVLMTADEIDALAAAPGVEITDIEVIKLDSA [r9_827_TrROS_Hall] | 3.16 ± 0.22 kcal/mol | 4.94 ± 0.28 kcal/mol | 4.59 ± 0.24 kcal/mol |
